In US20060160743A1 (SANFORD BURNHAM MEDICAL RESEARCH INSTITUTE, published 2006):
Where no end group is shown, it is not given here.

Tests used:
[1] = target: T1, murine bladder cancer-associated protein homolog (bc10), full length (murine, UniProt P62951 1-87); experiment: competition: free peptide against … phage on bc10-transfected 293T cells
T1 construct: Expressed from full-length cDNA in a pMH6-derived plasmid in 293T cells
T1 sequence: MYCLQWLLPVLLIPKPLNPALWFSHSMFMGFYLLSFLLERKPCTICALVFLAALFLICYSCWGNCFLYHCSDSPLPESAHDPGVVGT
Description: (§1) Receptor transfections and phage binding assays were performed as follows. 293T cells were transfected with pMH6-derived plasmids (Roche Diagnostics; Indianapolis, Ind.) encoding HLP/CRIP2, Sigirr/TIR8, MpcII-3-related protein and bc10 using the Fugene transfection reagent (Roche Diagnostics). Briefly, 10 μg of plasmid was mixed with 700 μl of serum-free DMEM and 30 μl of Fugene transfection reagent and incubated for 15 minutes at room temperature before the mixture was added to cells. After forty-eight hours, cells were detached from culture dishes using EDTA and washed once with PBS. Phage displaying CRPPR (SEQ ID NO: 1), CKRAVR (SEQ ID NO: 7), […] (SEQ ID NO: 11) or […] (SEQ ID NO: 12) and nonrecombinant control phage (1×10⁹ p.f.u) were incubated with transfected cells for two hours at 4° C. Unbound phage were removed by five washes with 1% BSA in PBS. Bound phage were rescued by addition of bacteria; binding efficiencies were determined by plaque assay as described above.
(§2) Peptides for competition assays were synthesized at The Burnham Institute peptide facility using Fmoc chemistry in a solid-phase synthesizer prior to purification by HPLC and confirmation of their identity by mass spectrometry. […] After five washes with 1% PBS, bound phage were rescued and quantitated by plaque assay.

[2] = target: T2, murine cysteine-rich protein 2 / heart LIM-protein (HLP/CRIP2), full length (murine, UniProt Q9DCT8 1-208); experiment: competition: free peptide against CRPPR phage on HLP/CRIP2-transfected 293T cells
T2 construct: also called ESP1
T2 sequence: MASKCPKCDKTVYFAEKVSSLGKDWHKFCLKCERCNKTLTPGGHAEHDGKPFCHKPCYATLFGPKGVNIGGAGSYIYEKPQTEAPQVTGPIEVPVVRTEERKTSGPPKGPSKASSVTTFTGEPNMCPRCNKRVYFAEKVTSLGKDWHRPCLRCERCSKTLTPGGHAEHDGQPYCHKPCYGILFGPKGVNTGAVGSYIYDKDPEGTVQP
Description: as §1, §2

[3] = target: T3, receptor clone 5 (carboxy-terminal 92 amino acids, residues 117 to 208, of heart LIM-protein / cysteine-rich … (murine, UniProt P36201 117-208 (rat entry))); experiment: bacterial two-hybrid (BacterioMatch), peptide bait against heart cDNA target clone
T3 construct: Target clone of the bacterial two-hybrid screen; also called HLP clone; HLP/CRIP2 fragment; not shown: fusion partner encoded by the target vector of the mouse heart cDNA library (BacterioMatch two-hybrid); not described
T3 sequence: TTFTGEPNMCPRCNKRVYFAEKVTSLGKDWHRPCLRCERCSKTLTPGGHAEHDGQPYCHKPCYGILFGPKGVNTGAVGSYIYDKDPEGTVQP
Description: (§3) PCR products were digested with EcoRI and XhoI, and subcloned into the bait pBT plasmid (Stratagene; La Jolla, Calif.) to generate a recombinant library of baits designated “pBT-hp.” pBT-hp plasmids were transformed into XL1-Blue MRF' Kan competent cells, and 2 μl or 5 μl of cells plated on 100 mm LB-chloramphenicol plates to determine the total number of primary transformants. The remaining transformants were pooled and plated on 150 mm LB-chloramphenicol plates. […] The plates were then scraped, and bacteria harvested. After plating 2 μl and 5 μl of the harvested library in order to determine the size of the amplified library, the pool of pBT-hp plasmids was purified from the pooled bacteria using a commercially available maxiprep DNA column. Purified DNA was used to transform BacterioMatch® Two-Hybrid System reporter strain competent cells according to the manufacturer's instructions (Stratagene; La Jolla, Calif.).
(§4) Bacterial two-hybridization experiments were performed with the BacterioMatch® Two-Hybrid System (Stratagene) according to the manufacturer's instructions. Briefly, pBT-hp and heart cDNA library plasmids were co-transformed using 50 ng each plasmid. Aliquots (100 μl) of co-transformants were plated on selective LB plates (500 μg/ml carbenicillin) and incubated at 37° C. for 20 hours before scoring the plates for growth. […]

[4] = target: T4, murine single Ig IL-1 receptor related protein (Sigirr/TIR8), full length (murine, UniProt Q9JLZ8 1-409); experiment: competition: free peptide against CKRAVR phage on Sigirr/TIR8-transfected 293T cells
T4 construct: Expressed from full-length cDNA in a pMH6-derived plasmid in 293T cells
T4 sequence: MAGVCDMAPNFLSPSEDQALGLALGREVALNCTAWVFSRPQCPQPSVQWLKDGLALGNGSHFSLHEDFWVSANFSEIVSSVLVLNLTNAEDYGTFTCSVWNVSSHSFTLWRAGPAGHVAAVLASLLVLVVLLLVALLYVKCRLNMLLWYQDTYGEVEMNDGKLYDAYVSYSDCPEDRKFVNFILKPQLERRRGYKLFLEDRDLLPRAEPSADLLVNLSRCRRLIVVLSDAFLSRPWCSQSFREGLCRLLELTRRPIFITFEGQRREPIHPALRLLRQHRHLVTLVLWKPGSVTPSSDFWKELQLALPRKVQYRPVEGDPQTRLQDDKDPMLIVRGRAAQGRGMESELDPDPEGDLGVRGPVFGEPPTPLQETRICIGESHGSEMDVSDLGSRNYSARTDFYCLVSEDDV
Description: as §1, §2

[5] = target: T5, receptor clone 36 (entire coding sequence of unnamed RIKEN Fantom protein product putatively similar to … (murine, UniProt Q9CZB0 1-169)); experiment: bacterial two-hybrid (BacterioMatch), peptide bait against heart cDNA target clone
T5 construct: also called MpcII-3-related protein; not shown: fusion partner encoded by the target vector of the mouse heart cDNA library (BacterioMatch two-hybrid); not described
T5 sequence: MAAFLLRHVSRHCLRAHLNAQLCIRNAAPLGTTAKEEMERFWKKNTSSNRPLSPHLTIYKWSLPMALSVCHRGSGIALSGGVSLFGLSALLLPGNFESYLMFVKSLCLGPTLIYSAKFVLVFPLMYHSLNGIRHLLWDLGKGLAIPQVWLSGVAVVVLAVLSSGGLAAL
Description: as §3, §4

B1: free synthetic peptide CPKTRRVPC (SEQ ID NO: 12) (peptide)
peptide: CPKTRRVPC
notes: also called cognate peptide
[1]
  binding result: binds

B2: free synthetic peptide CRPPR (SEQ ID NO: 1) (peptide)
peptide: CRPPR
notes: also called CRPPR peptide
[2]
  binding result: binds

B3: CRPPR (SEQ ID NO: 1), peptide insert in bait plasmid pBT-hp (peptide)
chain: CRPPR
notes: Hybrid bait protein of the bacterial two-hybrid screen; not shown: fusion partner encoded by bait plasmid pBT (BacterioMatch two-hybrid); not described, position relative to the peptide n
[3]
  binding result: binds

B4: free synthetic peptide CKRAVR (SEQ ID NO: 7) (peptide)
peptide: CKRAVR
notes: also called free peptide CKRAVR; cognate peptide
[4]
  binding result: binds

B5: CRSTRANPC (SEQ ID NO: 11), peptide insert in bait plasmid pBT-hp (peptide)
chain: CRSTRANPC
modifications: cysteine pairing not given here; also: part of pBT bait fusion protein, position of partner not given here
notes: not shown: fusion partner encoded by bait plasmid pBT (BacterioMatch two-hybrid); not described, position relative to the peptide n
[5]
  binding result: binds
